Series [1] deals with Saccharomyces cerevisiae. The series is described as follows: protein stability index of tFT-peptide fusion (C-terminal peptide) (PSI (0-1 scale)); higher = more stable (slower turnover). As to conditions: genetic background: wild type; temperature: 30 C.
Series [2] relates to Saccharomyces cerevisiae. Described as above. The method, then: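 MPS profiling in S. cerevisiae of the tFT-X12 degron library: putative degron peptides plus stable controls, 12 aa, fused to the C-terminus of a sfGFP-mCherry timer. Cells are FACS-sorted into 8 mCherry/sfGFP bins and deep-sequenced. PSI runs from 0 (unstable) to 1 (stable). Backgrounds are wild type, das1Δ and doa10Δ at 30 °C, and wild type, das1Δ, cdc34-1 and cdc53-1 at 37 °C; 2-3 technical replicates each.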

Setting [3] is: genetic background: cdc34-1, temperature: 37 C.
The mark [4] stands for this setting: genetic background: cdc53-1, temperature: 37 C.
[5] abbreviates: genetic background: das1 deletion, temperature: 30 C.
Setting [6] is: genetic background: das1 deletion, temperature: 37 C.
The mark [7] stands for this setting: genetic background: doa10 deletion, temperature: 30 C.
Where [8] appears, read: genetic background: wild type, temperature: 30 C.
The mark [9] stands for this setting: genetic background: wild type, temperature: 37 C.

± gives the standard deviation of the averaged measurements.
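Note: PSI is a weighted mean of sequencing reads over stability bins, variants kept only with over 10 reads, mCherry proximal and sfGFP distal, peptide attached via GGGS linker.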

As to CPFLTLLISLDV, the protein stability index turned out to be 0.478 ± 0.011 in the series on Saccharomyces cerevisiae [1]; 0.52 ± 0.034 with Saccharomyces cerevisiae [2] (setting [3]); 0.555 ± 0.044 in the series on Saccharomyces cerevisiae [2] (setting [4]); 0.411 ± 0.032 with Saccharomyces cerevisiae [2] (setting [5]); 0.531 ± 0.0067 in the series with Saccharomyces cerevisiae [2] (setting [6]); 0.407 ± 0.011 in the series on Saccharomyces cerevisiae [2] (setting [7]). The protein stability index with Saccharomyces cerevisiae [2] (setting [8]) came out at 0.426 ± 0.01; in the series on Saccharomyces cerevisiae [2] (setting [9]), 0.513 ± 0.028.

Take CPICDFLFLALF: the protein stability index came out at 0.424 ± 0.054 in the series with Saccharomyces cerevisiae [1]; 0.565 ± 0.021 with Saccharomyces cerevisiae [2] (setting [3]); 0.599 ± 0.064 in the series with Saccharomyces cerevisiae [2] (setting [4]); 0.483 ± 0.037 in the series with Saccharomyces cerevisiae [2] (setting [5]); 0.651 ± 0.022 in the series with Saccharomyces cerevisiae [2] (setting [6]); 0.469 ± 0.023 with Saccharomyces cerevisiae [2] (setting [7]). Besides, the protein stability index in the series with Saccharomyces cerevisiae [2] (setting [8]) came to 0.424 ± 0.028; with Saccharomyces cerevisiae [2] (setting [9]), 0.598 ± 0.03.

For the sequence CRHCFVLLYFDY, the protein stability index with Saccharomyces cerevisiae [1] was 0.349 ± 0.00063; in the series on Saccharomyces cerevisiae [2] (setting [3]), 0.304 ± 0.026; in the series on Saccharomyces cerevisiae [2] (setting [4]), 0.304 ± 0.013; in the series on Saccharomyces cerevisiae [2] (setting [5]), 0.321 ± 0.033; in the series with Saccharomyces cerevisiae [2] (setting [6]), 0.384 ± 0.0093; with Saccharomyces cerevisiae [2] (setting [7]), 0.421 ± 0.017. Moreover, the results for the protein stability index in the series on Saccharomyces cerevisiae [2] (setting [8]) and with Saccharomyces cerevisiae [2] (setting [9]) were 0.318 ± 0.023 and 0.374 ± 0.0097, respectively.

Regarding CRLATILRITAL, the protein stability index worked out at 0.384 ± 0.018 in the series with Saccharomyces cerevisiae [1]; 0.574 ± 0.028 in the series with Saccharomyces cerevisiae [2] (setting [3]); 0.665 ± 0.026 in the series on Saccharomyces cerevisiae [2] (setting [4]); 0.552 ± 0.022 in the series with Saccharomyces cerevisiae [2] (setting [5]); 0.658 ± 0.021 in the series with Saccharomyces cerevisiae [2] (setting [6]); 0.193 ± 0.008 in the series on Saccharomyces cerevisiae [2] (setting [7]). Further, the protein stability index in the series on Saccharomyces cerevisiae [2] (setting [8]) turned out to be 0.241 ± 0.031; in the series on Saccharomyces cerevisiae [2] (setting [9]), 0.4445 ± 0.00077.

CSLFFFRLIFTL: the protein stability index came out at 0.0826 ± 0.014 in the series with Saccharomyces cerevisiae [1]; 0.101 ± 0.025 in the series with Saccharomyces cerevisiae [2] (setting [3]); 0.185 ± 0.026 with Saccharomyces cerevisiae [2] (setting [4]); 0.219 ± 0.032 with Saccharomyces cerevisiae [2] (setting [5]); 0.339 ± 0.0091 with Saccharomyces cerevisiae [2] (setting [6]); 0.0783 ± 0.0034 in the series with Saccharomyces cerevisiae [2] (setting [7]). Also, the protein stability index came out at 0.0603 ± 0.017 in the series on Saccharomyces cerevisiae [2] (setting [8]) and 0.0702 ± 0.01 in the series on Saccharomyces cerevisiae [2] (setting [9]).

Consider CSLFYVFYRRLL, for which the protein stability index in the series on Saccharomyces cerevisiae [1] came to 0.38 ± 0.0078; in the series with Saccharomyces cerevisiae [2] (setting [3]), 0.595 ± 0.026; in the series with Saccharomyces cerevisiae [2] (setting [4]), 0.665 ± 0.012; in the series with Saccharomyces cerevisiae [2] (setting [5]) it was 0.556 ± 0.0087; with Saccharomyces cerevisiae [2] (setting [6]), 0.649 ± 0.01; in the series with Saccharomyces cerevisiae [2] (setting [7]) it was 0.285 ± 0.011. The protein stability index is 0.342 ± 0.051 with Saccharomyces cerevisiae [2] (setting [8]) and 0.5212 ± 0.0043 in the series with Saccharomyces cerevisiae [2] (setting [9]).

As for CSLRGLFLVVSV, the protein stability index in the series with Saccharomyces cerevisiae [1] is 0.405 ± 0.0065; in the series on Saccharomyces cerevisiae [2] (setting [3]) it was 0.3652 ± 0.0033; in the series with Saccharomyces cerevisiae [2] (setting [4]) it was 0.396 ± 0.018; in the series on Saccharomyces cerevisiae [2] (setting [5]), 0.289 ± 0.032; in the series with Saccharomyces cerevisiae [2] (setting [6]), 0.474 ± 0.016; in the series with Saccharomyces cerevisiae [2] (setting [7]), 0.339 ± 0.025. Also, the protein stability index with Saccharomyces cerevisiae [2] (setting [8]) amounted to 0.292 ± 0.02; in the series with Saccharomyces cerevisiae [2] (setting [9]) it was 0.451 ± 0.01.

On to CTLVFLFFDLCS, for which the protein stability index stood at 0.405 ± 0.053 with Saccharomyces cerevisiae [1]; 0.413 ± 0.015 with Saccharomyces cerevisiae [2] (setting [3]); 0.533 ± 0.087 in the series on Saccharomyces cerevisiae [2] (setting [4]); 0.333 ± 0.042 with Saccharomyces cerevisiae [2] (setting [5]); 0.497 ± 0.03 with Saccharomyces cerevisiae [2] (setting [6]); 0.263 ± 0.014 with Saccharomyces cerevisiae [2] (setting [7]). Besides, the protein stability index with Saccharomyces cerevisiae [2] (setting [8]) worked out at 0.304 ± 0.018; with Saccharomyces cerevisiae [2] (setting [9]) it was 0.4904 ± 0.0021.

Regarding CVCVVVCWRCGF, the protein stability index in the series on Saccharomyces cerevisiae [1] was 0.481 ± 0.015; in the series on Saccharomyces cerevisiae [2] (setting [3]), 0.378 ± 0.018; in the series on Saccharomyces cerevisiae [2] (setting [4]) it was 0.465 ± 0.035; in the series on Saccharomyces cerevisiae [2] (setting [5]), 0.306 ± 0.031; in the series with Saccharomyces cerevisiae [2] (setting [6]), 0.509 ± 0.021; with Saccharomyces cerevisiae [2] (setting [7]), 0.276 ± 0.0091. For the same sequence, the results for the protein stability index with Saccharomyces cerevisiae [2] (setting [8]) and in the series on Saccharomyces cerevisiae [2] (setting [9]) were 0.327 ± 0.034 and 0.4555 ± 0.0043, respectively.

As for CVIVCVLVWGRA, the protein stability index in the series with Saccharomyces cerevisiae [1] is 0.24 ± 0.011; in the series with Saccharomyces cerevisiae [2] (setting [3]), 0.156 ± 0.025; with Saccharomyces cerevisiae [2] (setting [4]), 0.269 ± 0.062; in the series with Saccharomyces cerevisiae [2] (setting [5]) it was 0.17 ± 0.046; in the series on Saccharomyces cerevisiae [2] (setting [6]) it was 0.329 ± 0.0095; with Saccharomyces cerevisiae [2] (setting [7]), 0.152 ± 0.0045. The figures for the protein stability index in the series on Saccharomyces cerevisiae [2] (setting [8]) and in the series on Saccharomyces cerevisiae [2] (setting [9]) were 0.172 ± 0.026 and 0.326 ± 0.013, respectively.

With CVMWFLLSAYYL, the protein stability index was 0.386 ± 0.061 with Saccharomyces cerevisiae [1]; 0.358 ± 0.019 with Saccharomyces cerevisiae [2] (setting [3]); 0.4288 ± 0.0029 in the series with Saccharomyces cerevisiae [2] (setting [4]); 0.265 ± 0.037 in the series with Saccharomyces cerevisiae [2] (setting [5]); 0.4336 ± 0.002 with Saccharomyces cerevisiae [2] (setting [6]); 0.285 ± 0.013 with Saccharomyces cerevisiae [2] (setting [7]). Moreover, the figures for the protein stability index in the series with Saccharomyces cerevisiae [2] (setting [8]) and in the series with Saccharomyces cerevisiae [2] (setting [9]) were 0.267 ± 0.042 and 0.457 ± 0.042, respectively.

With CVPAPCGRASCR, the protein stability index in the series with Saccharomyces cerevisiae [1] was determined as 0.698 ± 0.016; in the series with Saccharomyces cerevisiae [2] (setting [3]), 0.697 ± 0.013; in the series on Saccharomyces cerevisiae [2] (setting [4]), 0.7301 ± 0.0034; in the series on Saccharomyces cerevisiae [2] (setting [5]), 0.64 ± 0.041; in the series with Saccharomyces cerevisiae [2] (setting [6]), 0.743 ± 0.0076; in the series with Saccharomyces cerevisiae [2] (setting [7]) it was 0.63 ± 0.0079. Also, the protein stability index in the series with Saccharomyces cerevisiae [2] (setting [8]) was 0.658 ± 0.018; in the series with Saccharomyces cerevisiae [2] (setting [9]), 0.706 ± 0.022.

As to CYSLLFVSVILF, the protein stability index in the series with Saccharomyces cerevisiae [1] was found to be 0.218 ± 0.023; in the series on Saccharomyces cerevisiae [2] (setting [3]), 0.123 ± 0.091; in the series with Saccharomyces cerevisiae [2] (setting [4]), 0.158 ± 0.036; in the series on Saccharomyces cerevisiae [2] (setting [5]), 0.151 ± 0.015; with Saccharomyces cerevisiae [2] (setting [6]), 0.271 ± 0.023; in the series on Saccharomyces cerevisiae [2] (setting [7]), 0.135 ± 0.01. Moreover, the protein stability index with Saccharomyces cerevisiae [2] (setting [8]) was determined as 0.138 ± 0.021; in the series on Saccharomyces cerevisiae [2] (setting [9]), 0.248 ± 0.0038.

As for CYVFLCGSFVFV, the protein stability index in the series with Saccharomyces cerevisiae [1] worked out at 0.471 ± 0.037; in the series on Saccharomyces cerevisiae [2] (setting [3]), 0.446 ± 0.011; in the series on Saccharomyces cerevisiae [2] (setting [4]), 0.499 ± 0.0084; with Saccharomyces cerevisiae [2] (setting [5]), 0.36 ± 0.036; in the series on Saccharomyces cerevisiae [2] (setting [6]) it was 0.551 ± 0.014; in the series on Saccharomyces cerevisiae [2] (setting [7]), 0.317 ± 0.0068. The results for the protein stability index in the series on Saccharomyces cerevisiae [2] (setting [8]) and with Saccharomyces cerevisiae [2] (setting [9]) were 0.351 ± 0.023 and 0.515 ± 0.012, respectively.

Consider DFLSGRCIFFYV, for which the protein stability index in the series with Saccharomyces cerevisiae [1] was determined as 0.445 ± 0.0099; in the series on Saccharomyces cerevisiae [2] (setting [3]), 0.702 ± 0.029; in the series with Saccharomyces cerevisiae [2] (setting [4]) it was 0.797 ± 0.009; in the series on Saccharomyces cerevisiae [2] (setting [5]), 0.6451 ± 0.0058; in the series with Saccharomyces cerevisiae [2] (setting [6]), 0.762 ± 0.016; with Saccharomyces cerevisiae [2] (setting [7]), 0.243 ± 0.014. Besides, the protein stability index stood at 0.277 ± 0.029 with Saccharomyces cerevisiae [2] (setting [8]) and 0.512 ± 0.011 in the series with Saccharomyces cerevisiae [2] (setting [9]).

Turning to DFRGVSVIRHQV, the protein stability index with Saccharomyces cerevisiae [1] turned out to be 0.179 ± 0.047; in the series on Saccharomyces cerevisiae [2] (setting [3]), 0.615 ± 0.065; in the series with Saccharomyces cerevisiae [2] (setting [4]) it was 0.7327 ± 0.0024; in the series on Saccharomyces cerevisiae [2] (setting [5]), 0.64 ± 0.015; with Saccharomyces cerevisiae [2] (setting [6]) it was 0.7366 ± 0.0065; in the series with Saccharomyces cerevisiae [2] (setting [7]), 0.126 ± 0.0098. Besides, the protein stability index with Saccharomyces cerevisiae [2] (setting [8]) came to 0.147 ± 0.018; in the series on Saccharomyces cerevisiae [2] (setting [9]), 0.308 ± 0.052.
